Test [1] has as its system IL-8, CXCR1 and CXCR2 mRNA in HCC827GR. The test is described as follows: Real-time PCR gene expression in HCC827GR. Format: cell-based, human. The source says: (§1) 18 s was used as an internal loading control.
That is to say, RISE P-8 can compete with IL-8 and attenuate its feedback to regulate gene expression of IL-8, CXCR1 and CXCR2 decreased.
A general note: In qPCR the cycle at which signal appears reflects the starting amount.

Test [2] concerns IL-8, CXCR1 and CXCR2 mRNA in PC9GR. Description: Real-time PCR gene expression in PC9GR. It is filed as cell-based, human. The following applies: 5 μM Gefitinib, 24 hrs.
Text: as §1
[…]. […] That is to say, RISE P-8 can compete with IL-8 and attenuate its feedback to regulate gene expression of IL-8, CXCR1 and CXCR2 decreased.

For test [3], the system named is human neutrophil. Description: Modified Boyden chamber neutrophil chemotaxis to CXCL8. It is filed as cell-based. As to conditions: CXCL8 combined with RISE P-8 in lower compartment. On the procedure:
Please refer to FIG. 5, neutrophil chemotaxis was assessed using modified Boyden chamber microchemotaxis assays. The CXCL8 alone or combined with RISE P-8, were placed in the lower compartment of the Boyden chamber wells and purified neutrophil in the upper compartment. The migrated neutrophil were lysed and detected. The percentages of neutrophil migration were assessed and presented with Chemotaxis Index (CI) value. That is to say, CI=(intensityRISE P-8−intensityHBSS)/(intensityCXCL8−intensityHBSS)×100%.

Test [4] has as its system IL-8 in PC9GR. The test is described as follows: IL-8 protein expression in 3D (suspended) culture. It is filed as cell-based, human. The following applies: RISE P-8 200 ng/ml, 24 hrs, 2D vs suspended. As to the method:
(§2) Cells underwent serum-free 16-18 hr and suspended into 10^6 cells/mL in growth medium. 2×10^6 cells/well were seeded in coating/non-coating 6 well plates and treated with/without RISE P-8 (200 ng/ml) for 24 hrs.

Test [5] has as its system IL-8 in PC9. Description: IL-8 protein expression in 3D (suspended) culture. Format: cell-based, human. The following applies: PC9, RISE P-8 200 ng/ml, 24 hrs, 2D vs suspended. On the procedure: as §2
The test system of test [6] is HCC827GR. Description: Colony formation assay. It is filed as cell-based, human. As to conditions: RISE P-8 200 ng/mL with Gefitinib 5 μM, vs control group and IL-8 group. As to the method: (§3) The colony formation assay was also performed to evaluate cell proliferation.
For test [7], the system named is PC9GR. Description: Colony formation assay. Format: cell-based, human. As to conditions: RISE P-8 200 ng/mL with Gefitinib 5 μM, vs control group and IL-8 group. On the procedure: as §3
For test [8], the system named is HCC827GR. The test is described as follows: Matrigel transwell invasion assay. It is filed as cell-based, human. On the procedure: (§4) The invasion ability of cell was performed by using 8 μm pore size transwell (Corning FluoroBlok™). The transwell insert was coated with 60 μl matrigel (300 μg/ml in serum-free medium, BD Bioscience) overnight at 37° C. in 5% CO2 atmosphere. 2.5×10^4 cells in 0.2 mL of serum-free growth medium were seeded into the upper chamber coated with matrigel and then treated with drugs IL-8 (100 ng/ml) with/without RISE P-8 (200 ng/ml). After incubation for 24 hrs at 37° C. in 5% CO2, membrane of upper chamber was fixed with methanol and stained with propidium iodide (PI). The invasive cells in the bottom of membrane were imaged and counted by using an inverted fluorescence microscope (Observer.Z1, Zeiss) in five random fields of each specimen (magnification, ×100).

Test [9] deals with PC9GR. Description: Matrigel transwell invasion assay. It is filed as cell-based, human. As to the method: as §4
Test [10] has as its system LL/2 cells (Lewis lung carcinoma). The test is described as follows: Matrigel transwell invasion assay. It is filed as cell-based, mouse. As to conditions: RISE P-8 200 ng/ml, 24 hr. As to the method: Lewis lung carcinoma (LL/2) is a cell line established from the lung of a C57BL mouse bearing a tumor resulting from an implantation of primary Lewis lung carcinoma.
Please refer to FIG. 13A and FIG. 13B, the present invention also represented invasion of LL/2 cells (Louis lung carcinoma) treated with CXCL8, MIP-2 or RISE P-8. The character of LL/2 cancer cell is very prone to invasion into lung and grows rapidly. The LL/2 cells were seeded onto Matrigel-coated polycarbonate filters to analyze their invasive potentials. The cells were then incubated for 24 hr in chambers and were analyzed by staining PI and counted under a microscope. Representative fields of invasive cells on the transwell membrane (at 100× magnification) and the invasion rate were shown. The LL/2 cells treated with CXCL8 (100 ng/ml), RISE P-8 (200 ng/ml), or MIP-2 (50 ng/ml) respectively. […] MIP-2 is the CXCL8 homologues in murine.

Setting [11] is: IL-8 100 ng/mL + RISE P-8 200 ng/mL vs IL-8 group.
Setting [12] is: RISE P-8 200 ng/mL, Gefitinib 5 μM, 24 hrs, vs control group.

With `COc1cc2ncnc(Nc3ccc(F)c(Cl)c3)c2cc1OCCCN1CCOCC1` [Gefitinib], in test [1] (5 μM Gefitinib, 24 hrs), the “IL-8, CXCR1 and CXCR2 mRNA expression” value was “significantly enhanced”. For the same molecule, in test [1] (gefitinib 5 μM, 24 hours), the “CXCR1 and CXCR2 mRNA expression” value was “increased”; the “IL-8 mRNA expression” value is reported as “increased”. Also, the “IL-8, CXCR1 and CXCR2 mRNA expression” value in [2] is reported as “significantly enhanced”.

B1: RISE P-8: chemokine analogue peptide, SEQ ID NO: 1; analogous protein of CXCL8 (IL-8), antagonist of CXCR1 and CXCR2 (protein)
chain: GSKELRCQCIRSYSKPFHPKFIKELRVIPASQFCANTEIIVKLSDGRELCLDPKENWVQRVVEKFLKRAENS
modifications: RISE P-8
notes: analogous protein of CXCL8 (IL-8), antagonist of CXCR1 and CXCR2
On to B1, for which the “neutrophil chemotaxis (Chemotaxis Index)” value in [3] is recorded as “effectively antagonize neutrophil response to CXCL8”. In addition, the “IL-8 protein expression (autocrine secretion)” value in [4] and in test [5] was “significantly attenuate IL-8 autocrine only in suspended culture” each time. The colony formation rate result in [6] and in test [7] was “slow down significantly” throughout. For the same molecule, the “invasion rate, IL-8 stimulated” value in test [8] (setting [11]) and in [9] (setting [11]) was “prevent significantly invasion rate” in each case. Further, the invasion rate result in test [8] (setting [12]) and in [9] (setting [12]) was “decreases invasion rate” in each case. Further, in test [10] (LL/2, CXCL8 100 ng/ml), the “invasion rate, CXCL8 stimulated” value is given as “significantly suppressed CXCL8 stimulated cell invasion”. Besides, in test [10] (LL/2, MIP-2 50 ng/ml), the “number of invasive cells, MIP-2 induced” value is on record as “significantly decreased the number of invasive cells”.
